The values below come from patent publication US20180086841A1 (Merck Sharp & Dohme, published 2018).

Common to all, as to assay: flow cytometry on CHO-K1 transfectants, right sub-column
One assay deals with T1, D32A.
T1 construct: also called hCD27 D32A
T1 receptor chain: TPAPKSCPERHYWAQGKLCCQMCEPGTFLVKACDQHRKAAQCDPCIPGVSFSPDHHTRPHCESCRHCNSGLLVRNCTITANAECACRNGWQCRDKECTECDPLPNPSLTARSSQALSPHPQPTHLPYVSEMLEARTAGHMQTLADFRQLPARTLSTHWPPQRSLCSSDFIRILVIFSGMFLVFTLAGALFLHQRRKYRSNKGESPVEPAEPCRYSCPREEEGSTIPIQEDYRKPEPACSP

The next assay deals with T2, Q41A.
T2 construct: also called hCD27 Q41A
T2 receptor chain: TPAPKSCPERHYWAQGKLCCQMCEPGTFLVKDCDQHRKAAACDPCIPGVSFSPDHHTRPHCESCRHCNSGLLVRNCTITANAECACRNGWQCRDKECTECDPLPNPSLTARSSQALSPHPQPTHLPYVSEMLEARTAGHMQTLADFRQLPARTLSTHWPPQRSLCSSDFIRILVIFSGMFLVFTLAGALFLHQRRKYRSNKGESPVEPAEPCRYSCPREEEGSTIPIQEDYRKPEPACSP

The target of another assay is T3, D43A.
T3 construct: also called hCD27 D43A
T3 receptor chain: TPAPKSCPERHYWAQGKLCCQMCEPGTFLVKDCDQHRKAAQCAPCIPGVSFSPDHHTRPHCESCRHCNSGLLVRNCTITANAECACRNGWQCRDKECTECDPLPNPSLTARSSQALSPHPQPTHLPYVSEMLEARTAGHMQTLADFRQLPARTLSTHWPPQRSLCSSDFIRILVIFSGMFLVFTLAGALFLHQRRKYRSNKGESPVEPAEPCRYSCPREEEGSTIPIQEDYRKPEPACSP

A further assay addresses T4, P44A.
T4 construct: also called hCD27 P44A
T4 receptor chain: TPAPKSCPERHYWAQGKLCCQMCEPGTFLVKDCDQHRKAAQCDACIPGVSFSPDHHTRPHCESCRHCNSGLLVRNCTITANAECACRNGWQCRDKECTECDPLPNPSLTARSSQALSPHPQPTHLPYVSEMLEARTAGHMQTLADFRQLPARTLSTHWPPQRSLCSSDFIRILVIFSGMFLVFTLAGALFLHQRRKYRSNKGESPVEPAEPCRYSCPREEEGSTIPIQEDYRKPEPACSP

The next assay addresses T5, H60A.
T5 construct: also called hCD27 H60A
T5 receptor chain: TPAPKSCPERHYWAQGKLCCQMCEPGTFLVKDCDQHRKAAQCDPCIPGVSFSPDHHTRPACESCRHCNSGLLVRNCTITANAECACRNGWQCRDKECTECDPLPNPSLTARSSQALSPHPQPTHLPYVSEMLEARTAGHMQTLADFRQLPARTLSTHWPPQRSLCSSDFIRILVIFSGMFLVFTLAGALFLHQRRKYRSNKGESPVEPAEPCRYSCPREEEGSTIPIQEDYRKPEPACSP

Another assay deals with T6, S63A.
T6 construct: also called hCD27 S63A
T6 receptor chain: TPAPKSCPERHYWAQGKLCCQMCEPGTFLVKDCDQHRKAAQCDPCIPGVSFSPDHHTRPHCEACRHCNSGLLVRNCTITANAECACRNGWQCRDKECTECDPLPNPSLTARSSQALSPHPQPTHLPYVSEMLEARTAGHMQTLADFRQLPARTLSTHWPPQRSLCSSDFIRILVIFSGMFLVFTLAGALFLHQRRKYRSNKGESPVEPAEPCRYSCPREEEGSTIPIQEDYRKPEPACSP

A further assay has as its target T7, R87A.
T7 construct: also called hCD27 R87A
T7 receptor chain: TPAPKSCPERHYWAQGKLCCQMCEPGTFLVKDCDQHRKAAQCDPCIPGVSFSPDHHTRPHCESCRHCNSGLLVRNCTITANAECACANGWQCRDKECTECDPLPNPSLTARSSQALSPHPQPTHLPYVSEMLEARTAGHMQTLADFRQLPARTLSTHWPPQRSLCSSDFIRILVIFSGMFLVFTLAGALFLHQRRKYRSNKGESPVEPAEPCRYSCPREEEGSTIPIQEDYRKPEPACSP

For the next assay, the target named is T8, W90A.
T8 construct: also called hCD27 W90A
T8 receptor chain: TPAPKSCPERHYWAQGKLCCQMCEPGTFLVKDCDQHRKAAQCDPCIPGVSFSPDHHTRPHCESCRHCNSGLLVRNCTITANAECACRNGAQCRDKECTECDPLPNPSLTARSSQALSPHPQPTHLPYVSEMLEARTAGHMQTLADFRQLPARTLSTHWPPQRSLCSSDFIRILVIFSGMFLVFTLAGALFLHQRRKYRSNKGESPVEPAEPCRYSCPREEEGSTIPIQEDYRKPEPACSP

The target in a further assay is T9, R93A.
T9 construct: also called hCD27 R93A
T9 receptor chain: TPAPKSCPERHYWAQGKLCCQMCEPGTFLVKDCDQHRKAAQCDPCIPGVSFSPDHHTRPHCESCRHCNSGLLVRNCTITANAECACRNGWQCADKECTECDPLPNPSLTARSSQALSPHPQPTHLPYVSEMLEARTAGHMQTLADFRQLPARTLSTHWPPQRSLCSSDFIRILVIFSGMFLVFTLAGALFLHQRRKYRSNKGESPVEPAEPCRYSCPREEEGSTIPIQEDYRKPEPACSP

For a further assay, the target named is T10, W13A.
T10 construct: also called hCD27 W13A
T10 receptor chain: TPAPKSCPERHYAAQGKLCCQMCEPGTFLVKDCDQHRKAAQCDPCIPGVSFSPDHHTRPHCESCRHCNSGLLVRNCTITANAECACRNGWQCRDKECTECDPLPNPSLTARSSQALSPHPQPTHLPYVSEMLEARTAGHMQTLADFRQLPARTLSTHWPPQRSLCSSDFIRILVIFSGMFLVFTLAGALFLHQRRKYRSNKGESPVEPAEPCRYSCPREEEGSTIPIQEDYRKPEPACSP

Description for D32A: (§1) The hCD27 variants that were tested are listed. Amino acids correspond to the UniProt P26842-1 sequence. Amino acids 1-20 constitute the signal peptide. Binding is expressed as the geometric mean of the FITC signal, relative to antibody binding to hCD27, which was set at 100%.
(§2) The ability of several anti-hCD27 antibodies to bind to a series of hCD27 alanine mutants was determined using CHO-K1 cells, transiently transfected pCI-neo empty vector, pCI-neo.hCD27 and several pCI-neo.CD27Ala mutant constructs.
(§3) Detached cells were transferred to 96 wells round-bottomed well plates at approximately 1.2×10⁵ cells/well. After spinning down the cells, discarding the supernatants and re-suspending the cells in the residual volume, the primary antibodies were added and incubated for 30 minutes at 4° C. Cells were washed three times with DPBS/BSA 1%, followed by centrifugation, discarding of the supernatants and re-suspension in the residual volume. […] After washing once, antibody binding was detected using the HTS plate reader (FACS Canto II) and FlowJo software for data analysis. Debris, dead cells and doublets were excluded from the analysis. Binding was expressed as the geometric mean of the FITC signal, relative to antibody binding to hCD27, which was set at 100%.
Description for D43A: as §1, §2, §3
Description for H60A: as §1, §2, §3
Description for P44A: as §1, §2, §3
Description for Q41A: as §1, §2, §3
Description for R87A: as §1, §2, §3
Description for R93A: as §1, §2, §3
Description for S63A: as §1, §2, §3
Description for W13A: as §1, §2, §3
Description for W90A: as §1, §2, §3

B1: hCD27.131A (mouse parental 131A) (antibody, mouse IgG1, V domains shown)
VH: QIQLVQSGPELKKPGETVKISCKASGYTFTNYGMNWVKQAPGKGLKWMGWINTNTGEPTYAEEFKGRFAFSLETSATTAYLQINNLKNEDTATYFCAREGDAMDYWGQGTSVTVSS
VL: QIVLTQSPAIMSASPGEKVTMTCSASSSVSYMHWYQQKSGTSPKRWIYDTSKLASGVPARFSGSGSGTSYSLTISSMEAEDAATYYCQQWNSYPFTFGSGTKLEIK
notes: Mouse IgG1 antibody; also called mouse hCD27.131A
For the molecule B1, the “binding, WT hCD27 = 100 (GM FITC)” value with D32A was 62.1%; in the assay with Q41A, 80.5%; with D43A it was 96.2%; in the assay with P44A it was 91%; in the assay with H60A it was 129%; with S63A, 141%. The “binding, WT hCD27 = 100 (GM FITC)” value is 111% with R87A, 102% with W90A, 90% with R93A and 88.6% in the assay with W13A.
